{"source": "paper PMC10021056", "about": "(Nature Communications, 2023)", "binders": {"B1": {"name": "Fab 1A9 (Fab, V domains shown)", "VH": "QVQLQQSGAELVRPGTSVKISCKASGYTFTNYWLGWVKQRPGHGLEWIGDIYRGGGYTNYNEKFKGKATLTADTSSSTAYMQLSSLTSEDSAVYFCATRDGYFDYWGQGTTLTVSS", "VL": "DIQMTQSSSSFSVSLGDRTTITCKASEDIYNRLAWFQQKPGNAPRLLISGATSLETGVPSRFSGSGSGKDYTLSITSLQTEDVATYYCQQYWSSPWTFGGGTKLEIK", "notes": "recombinant Fab of m7"}, "B2": {"name": "Fab 2B12 (Fab, V domains shown)", "V domain 1": "EVQLVESGGGLVQPKGSLKLSCAASGFIFNTYAMHWVRQAPGKGLEWVARIRSKSSNYATYYADSVKDRFTISRDDSQSMLYLQMNNLKTEDTAMYYCVREGGYYFDYWGQGTTLTFSA", "V domain 2": "DIVMSQSPSSLAVSVGEKVTMSCKSSQSLLHVSNQKNYLAWYQQKPGQSPKLLIYWASTRESGVPDRFTGSGSGTDFTLTISSVKAEDLAVYYCQQYYSYPWPFGGGTKLKSN", "notes": "recombinant Fab of m9"}, "B3": {"name": "Fab 2D3 (Fab, V domains shown)", "VH": "QVQLKQSGPGLVAPSQSLSITCTVSGFSLTSYALSWVRQPPGKGLEWLGVIWVGGVTNYNSALKSRLTISKDNSKSQVFLKMNSLQSEDTARYYCASRHLSTGAMDYWGQGTSVTVSA", "VL": "DVLMTQSPLSLPVSLGDQASISCRSSQSIVHSNGDTYFEWYLQKPGQSPKLLIYKVSNRFSGVPNRFSGSGSGTDFTLKISRVEAEDLGVYYCFQGSYVPYTFGGGTKLEIK", "notes": "recombinant Fab of m5"}, "B4": {"name": "Fab 1H8 (Fab, V domains shown)", "VH": "EVQLQQSGPELVKPGASVKISCKASGYSFTGYTMNWVKQSHGKNLEWIGLINPFIGGTRYNQKFKGKATLTVDKSSRTAYMELLSLTSEDSAVYYCAREADYDWYFDVWGAGTTVTVSS", "VL": "DIQMTQTTSSLSASLGDRVTISCRASQDISNYLHWYQQKPDGTVNLLIFYTSRLHSGVPSRFSGSGSGTDYSLTISNLEQEDIATYFCQQGNTLPRTFGGGTKLEIK", "notes": "recombinant Fab of m6"}, "B5": {"name": "Fab 1F2 (Fab, V domains shown)", "VH": "EVQLQQSGPELVKPGVSLKISCKASGYSFTDYTMNWVKQSHGKNLEWIGLINPYIGGTRYNQKFKGKATLTVDKSSSTAYLELLSLTSEDSAVYYCARFSGSSNRAMDYWGQGTSVTVSS", "VL": "DIQMTQSPASLSASVGETVTITCGASENIYGALNWYQRKQGKSPQLLIYGATNLADGMSSRFSGSGSARQYSLKISSLHPDDVATYYCQNVLSIPWTFGGGTKLEIK", "notes": "recombinant Fab of m12"}, "B6": {"name": "Fab 4F6 (Fab, V domains shown)", "VH": "QVQLQQSGAELVKPGASVKLSCKASGYTFTSNWMHWVKQRPGRGLEWIGRIDPNSGGTKYNEKFKSKATLTVDKPSSTAYMQLSSLTSEDSAVYYCARDGHYAYFDVWAPGTTVTVSS", "VL": "DIVMTQSQKFMSTSVGDRVSVTCKASQNVGTTVAWYQQKPGQSPNALIYSASYRYTGVPDRFTGSGSGTDFTLTISNVQSEDLAEYFCQQYNRYPWTFGGGTKLEIK", "notes": "recombinant Fab of m13"}, "B7": {"name": "Fab 1H1 (Fab, V domains shown)", "VH": "VQLQQSGAELMRPGASMKISCKATGYTFSSYWIDWVKQRPGHGLEWIGEILPGSGDTNYNENFKGKAAFTADTSSNTAYMQLTSLTSEDSAVFYCARGGRYHGQGFFDYWGQGTTLTVSS", "VL": "IQMTQSPASLSASVGETVTITCRPSENVHIYLAWYQQKQGKSPQLLVYNAKTLADGVPSRFSGSASGTQFSLKINSLQPEDFGSYYCQHFWSIPYTFGGGTKLEIK", "notes": "recombinant Fab of m8"}, "B8": {"name": "Fab 2B12 (Fab, V domains shown)", "V domain 1": "EVQLVESGGGLVQPKGSLKLSCAASGFIFNTYAMHWVRQAPGKGLEWVARIRSKSSNYATYYADSVKDRFTISRDDSQSMLYLQMNNLKTEDTAMYYCVREGGYYFDYWGQGTTLTFSA", "V domain 2": "DIVMSQSPSSLAVSVGEKVTMSCKSSQSLLHVSNQKNYLAWYQQKPGQSPKLLIYWASTRESGVPDRFTGSGSGTDFTLTISSVKAEDLAVYYCQQYYSYPWPFGGGTKLKSN"}, "B9": {"name": "Fab 1F2 (Fab, V domains shown)", "VH": "EVQLQQSGPELVKPGVSLKISCKASGYSFTDYTMNWVKQSHGKNLEWIGLINPYIGGTRYNQKFKGKATLTVDKSSSTAYLELLSLTSEDSAVYYCARFSGSSNRAMDYWGQGTSVTVSS", "VL": "DIQMTQSPASLSASVGETVTITCGASENIYGALNWYQRKQGKSPQLLIYGATNLADGMSSRFSGSGSARQYSLKISSLHPDDVATYYCQNVLSIPWTFGGGTKLEIK"}, "B10": {"name": "Fab 4F6 (Fab, V domains shown)", "VH": "QVQLQQSGAELVKPGASVKLSCKASGYTFTSNWMHWVKQRPGRGLEWIGRIDPNSGGTKYNEKFKSKATLTVDKPSSTAYMQLSSLTSEDSAVYYCARDGHYAYFDVWAPGTTVTVSS", "VL": "DIVMTQSQKFMSTSVGDRVSVTCKASQNVGTTVAWYQQKPGQSPNALIYSASYRYTGVPDRFTGSGSGTDFTLTISNVQSEDLAEYFCQQYNRYPWTFGGGTKLEIK"}, "B11": {"name": "Fab 1H1 (Fab, V domains shown)", "VH": "VQLQQSGAELMRPGASMKISCKATGYTFSSYWIDWVKQRPGHGLEWIGEILPGSGDTNYNENFKGKAAFTADTSSNTAYMQLTSLTSEDSAVFYCARGGRYHGQGFFDYWGQGTTLTVSS", "VL": "IQMTQSPASLSASVGETVTITCRPSENVHIYLAWYQQKQGKSPQLLVYNAKTLADGVPSRFSGSASGTQFSLKINSLQPEDFGSYYCQHFWSIPYTFGGGTKLEIK"}}}
{"biological_target": "T1, prefusion Hendra virus (HeV) F (Hendra virus, reference strain …, stabilised)", "T1 chain": "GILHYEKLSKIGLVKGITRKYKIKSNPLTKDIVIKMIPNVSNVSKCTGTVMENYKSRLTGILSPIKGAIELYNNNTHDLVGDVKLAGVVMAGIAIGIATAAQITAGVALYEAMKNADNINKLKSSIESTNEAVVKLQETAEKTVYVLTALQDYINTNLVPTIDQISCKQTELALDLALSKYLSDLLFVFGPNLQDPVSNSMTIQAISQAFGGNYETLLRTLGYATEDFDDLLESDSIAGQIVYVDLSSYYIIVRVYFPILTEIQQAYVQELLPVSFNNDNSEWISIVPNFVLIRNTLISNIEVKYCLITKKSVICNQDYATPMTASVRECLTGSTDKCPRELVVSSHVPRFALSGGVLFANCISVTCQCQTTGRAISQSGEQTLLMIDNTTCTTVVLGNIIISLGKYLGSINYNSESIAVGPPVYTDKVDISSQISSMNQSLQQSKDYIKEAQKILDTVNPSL", "test": "BLI", "conditions": "both partners purified"}
{"binder": "B1", "binding result": "binds"}
{"binder": "B2", "binding result": "binds"}
{"binder": "B3", "binding result": "binds"}
{"binder": "B4", "binding result": "binds"}
{"binder": "B5", "binding result": "binds"}
{"binder": "B6", "binding result": "binds"}
{"binder": "B7", "binding result": "binds"}
{"biological_target": "T2, prefusion Hendra virus (HeV) F protein (Hendra virus, reference strain …)", "T2 chain": "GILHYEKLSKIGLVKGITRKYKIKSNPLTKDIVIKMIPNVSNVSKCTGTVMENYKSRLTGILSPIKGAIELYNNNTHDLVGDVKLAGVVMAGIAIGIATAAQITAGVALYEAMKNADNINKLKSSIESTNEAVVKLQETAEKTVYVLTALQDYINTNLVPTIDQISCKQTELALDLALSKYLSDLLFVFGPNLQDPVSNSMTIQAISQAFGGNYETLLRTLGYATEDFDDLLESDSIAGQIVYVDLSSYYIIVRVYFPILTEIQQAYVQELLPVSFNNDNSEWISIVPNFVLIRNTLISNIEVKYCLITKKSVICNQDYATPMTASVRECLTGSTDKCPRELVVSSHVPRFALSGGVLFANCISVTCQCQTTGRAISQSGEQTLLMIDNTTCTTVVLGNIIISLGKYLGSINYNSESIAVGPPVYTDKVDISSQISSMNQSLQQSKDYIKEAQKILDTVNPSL", "test": "BLI", "conditions": "both partners purified"}
{"binder": "B8", "binding result": "binds"}
{"binder": "B9", "binding result": "binds"}
{"binder": "B10", "binding result": "binds"}
{"binder": "B11", "binding result": "binds"}
